Data published in publication PMC9527319, “^99mTc-labeled iRGD for single-positron emission computed tomography imaging of triple-negative breast cancer” (Frontiers in Bioengineering and Biotechnology, 2022).
Read-outs that look alike come from different tables or passages of the source. Bridge positions count the residues as written; N and C are the ends. Peptide text beside a SMILES is read from it. * marks the point of attachment. HYNIC = NNc1ccc(C(=O)*)cn1

Columns and labels:
[1] = In vitro stability of 99mTc-labeled peptides in PBS and cysteine solution (RCP by TLC); type: physicochemical; details: PBS (0.1 M, pH = 7.4) and cysteine solution (100-fold molar excess over the peptides), room temperature, within 6 h, RCP by TLC (silica gel 60 F254, 50% acetonitrile)
Protocol: (§1) HYNIC-iRGD, HYNIC-iRGE, and HYNIC-CG7C were labeled with ^99mTc according to previously published procedures in the literature ([Bohn et al., 2013]; [Xu et al., 2017]; [Gong et al., 2022]). In brief, a mixture of 50 μl HYNIC-modified peptide (1 mg/ml in water), 0.5 ml EDDA solution (20 mg/ml in 0.1 M NaOH), 0.5 ml tricine solution (40 mg/ml in 0.2 M PBS, pH = 6.0), 1 ml Na^99mTcO4 solution (50 mCi/ml), and 50 μl SnCl2 solution (1 mg/ml in 0.1 M HCl) were heated at 100°C for 15 min. After cooling to room temperature, the mixture was analyzed using instant thin-layer chromatography (TLC) and radio-high-performance liquid chromatography (radio-HPLC). The ^99mTc-labeled peptides were characterized using an Agilent 1260 HPLC system (Agilent Technologies, United States) equipped with a UV-vis detector (λ = 220 nm) and a radioactive flow detector (BioScan, United States). A SunFire C18 column (5 μm, 4.6 × 250 mm, Waters, Japan) was used at a flow rate of 1 ml/min with the following gradient method: 0.1% Trifluoroacetic acid in H2O and CH3CN (0–20 min, 10%–35% CH3CN) for iRGD and iRGE, and 0.1% trifluoroacetic acid in H2O and CH3CN (0–20 min, 25%–60% CH3CN) for CG7C. Their RCPs were determined by radio-HPLC and rapidly analyzed by TLC in a system consisting of silica gel 60 F254 TLC plates (Merck, Germany) and 50% acetonitrile as mobile phase. […]

[2] = tested on: 4T1 tumor-bearing mice; assay: Biodistribution (gamma-counter, %ID/g); type: in vivo
Protocol: The radioactivity counts of all samples were measured using a γ-counter (CAPINTEC, United States) and expressed as counts per minute after correction for decay. The results are shown as the percentage of injection dose/gram (%ID/g) of wet tissue for each time point in each group.

[3] = In vitro stability of 99mTc-labeled peptides in FBS (RCP by TLC); type: in vitro ADME, bovine; details: FBS at 37°C, within 6 h, RCP by TLC (silica gel 60 F254, 50% acetonitrile)
Protocol: as §1

[4] = Pharmacokinetics (blood radioactivity-time curve); type: in vivo; details: healthy ICR mice; for clear-phase half-life t1/2(β) / distribution phase half-life t1/2(α): i.v., blood, two-compartment model (DAS 2.0); for tissue uptake at 1 min / tissue uptake at 0.5 h / tissue uptake at 3 h: mouse, whole blood, iv, 20 uCi, total radioactivity, i.v. 20 μCi in 200 μl PBS, γ-counter, read-out: radioactivity level in blood; for tissue uptake at 1 min / tissue uptake at 0.5 h: mean ± SD; for tissue uptake at 0.5 h: 30 min; for tissue uptake at 3 h: 180 min
Protocol: The pharmacokinetic profiles of ^99mTc-HYNIC-iRGD and ^99mTc-HYNIC-iRGE were evaluated in healthy ICR mice. Each mouse was intravenously injected with ^99mTc-HYNIC-iRGD or ^99mTc-HYNIC-iRGE at a dose of 20 μCi in 200 μl PBS solution. Blood samples ([…]) from each mouse were immediately collected and weighed at designated times (1, 2, 5, 15, 30, 60, 120, and 180 min), and the radioactivity was measured using a γ-counter to calculate the %ID/g. Moreover, the pharmacokinetic data were analyzed by DAS 2.0 (Shanghai, China) using a two-compartment model to calculate the half-lives of ^99mTc-HYNIC-iRGD and ^99mTc-HYNIC-iRGE in blood.

[5] = tested on: 4T1 tumor-bearing mice; details: for course of SPECT signal in tumor with time: i.v. tail vein, 0.5, 1, 2 and 4 h post-injection; for tumor accumulation (SPECT): i.v. tail vein, 0.5 h post-injection
Excerpt: Murine breast cancer cells 4T1 were purchased from Procell Life Science and Technology Co., Ltd. (Wuhan, China) and maintained in RPMI-1640 supplemented with 10% FBS. Four-week-old female BALB/c nude mice (18–20 g) and healthy ICR mice (20–22 g) were purchased from Shanghai Laboratory Animal Center of the Chinese Academy of Sciences (Shanghai, China). To establish breast cancer models, four-week-old female BALB/c nude mice were subcutaneously injected in their right-side flanks with 5 × 10^6 4T1 cells suspended in 100 μl of PBS. When the tumor diameter reached 0.8–1.2 cm, the mice were used for animal experiments. All animal experiments were repeated three times and performed according to the protocols established by the Ethics Committee of Shanghai General Hospital.
The 4T1 tumor-bearing mice were randomly divided into three groups (three mice per group). After anesthetization with pentobarbital sodium (40 mg/kg), 200 μl of ^99mTc-HYNIC-iRGD, ^99mTc-HYNIC-iRGE, or ^99mTc-HYNIC-CG7C ([^99mTc] = 10 mCi/ml) was injected via the tail vein. SPECT images were acquired at 0.5, 1, 2, and 4 h post-injection using a SPECT imaging system equipped with a Xeleris 2.0 workstation and low-energy general-purpose collimators (Infinia, Denver, CO, United States).

[6] = i.v. 20 μCi, 4 h post-injection

SMILES | changes in RCPs (stability in vitro) [1] | tumor-to-muscle (T/M) ratio ([2]; i.v. 20 μCi, 0.5, 1, 2 and 4 h post-injection) | tumor-to-kidney (T/K) ratio ([2]; i.v. 20 μCi, 0.5–4 h post-injection) | tumor-to-blood (T/B) ratio [2, 6] | tumor-to-lung (T/Lu) ratio [2, 6] | changes in RCPs (stability in vitro) [3] | clear-phase half-life t1/2(β) [4] | distribution phase half-life t1/2(α) [4] | tissue uptake at 1 min [4] | tissue uptake at 0.5 h [4] | tissue uptake at 3 h [4] | course of SPECT signal in tumor with time ([5]; 4T1 tumor-bearing nude mice) | tumor accumulation (SPECT) ([5]; 4T1 tumor-bearing nude mice) | radioactivity in bladder and kidneys (SPECT; clearance through the urinary system) ([5]; 4T1 tumor-bearing nude mice, i.v., each time point 0.5–4 h) | radioactivity in bladder and kidneys (SPECT; clearance through the urinary system) ([5]; mouse, in vivo, iv)
N=C(N)NCCC[C@@H]1NC(=O)[C@@H](NC(=O)c2ccc(NN)nc2)CSSC[C@@H](C(=O)O)NC(=O)[C@H](CC(=O)O)NC(=O)[C@@H]2CCCN2C(=O)CNC(=O)[C@H](CCCCN)NC(=O)[C@H](CC(=O)O)NC(=O)CNC1=O [^99mTc-HYNIC-iRGD, metal not drawn] | no obvious changes in RCPs | higher in mice treated with ^99mTc-HYNIC-iRGD than in those treated with ^99mTc-HYNIC-iRGE at each time point | much higher than for ^99mTc-HYNIC-iRGE and ^99mTc-HYNIC-CG7C | 1.8 | 1.9 | no obvious changes in RCPs | 12.54 min | 1.43 min | 14.3 ± 0.95 %ID/g | 1.26 ± 0.11 %ID/g | ~0.1 %ID/g | increase in tumor accumulation of radioactivity | distinct tumor accumulation | high radioactivity | –
N=C(N)NCCC[C@@H]1NC(=O)[C@@H](NC(=O)c2ccc(NN)nc2)CSSC[C@@H](C(=O)O)NC(=O)[C@H](CC(=O)O)NC(=O)[C@@H]2CCCN2C(=O)CNC(=O)[C@H](CCCCN)NC(=O)[C@H](CCC(=O)O)NC(=O)CNC1=O [^99mTc-HYNIC-iRGE, metal not drawn] ({HYNIC}-CRGEKGPDC-OH; disulfide 1-9 (inferred); N-terminus and C-terminus assumed) | no obvious changes in RCPs | – | – | – | – | no obvious changes in RCPs | 10.56 min | 0.88 min | 19.3 ± 2.52 %ID/g | 1.06 ± 0.08 %ID/g | ~0.1 %ID/g | gradually faded with time | distinct tumor accumulation | – | high radioactivity
